Measurements reported in paper PMC11900225, “Deletions in Glial Fibrillary Acidic Protein Leading to Alterations in Intermediate Filament Assembly and Network Formation” (International Journal of Molecular Sciences, 2025).
One block for each binder: values may come before it.

Legend:
[1] = target: the molecule itself; test: low-speed sedimentation assay of assembled filaments; assembly mixture centrifuged at 1000 x g for 5 min at room temperature; supernatant and pellet by SDS-PAGE and Coomassie; monitors filament aggregation
[2] = target: the molecule itself; test: high-speed sedimentation assay of assembled filaments; assembly mixture layered on a 0.85 M sucrose cushion in assembly buffer, 80,000 x g, 20 min, 20 °C; supernatant and pellet by SDS-PAGE and Coomassie; efficiency is the percent of total protein in the pellet
[3] = target: T1, Glial fibrillary acidic protein (GFAP), full-length wild type, human GFAPα (human, UniProt P14136-1 1-432); test: in vitro filament assembly with negative-stain transmission electron microscopy; 0.2 mg/mL GFAP dialysed stepwise out of 6 M urea into low-salt buffer, then into assembly buffer (10 mM Tris-HCl, 50 mM NaCl, 1 mM DTT, pH 7) at 34–36 °C for 12–16 h; stained with 1% uranyl acetate; mutants alone or coassembled with WT at stated proportions; details: both partners purified
T1 construct: Glial fibrillary acidic protein, major isoform GFAPα, human, full length, cDNA in pET23b; Expressed from pET23b; also called WT GFAP; WT

[4] = target: T1, Glial fibrillary acidic protein (GFAP), …; test: high-speed sedimentation assay of assembled filaments; assembly mixture layered on a 0.85 M sucrose cushion in assembly buffer, 80,000 x g, 20 min, 20 °C; supernatant and pellet by SDS-PAGE and Coomassie; efficiency is the percent of total protein in the pellet; details: both partners purified

B1: CΔ121 GFAP (domain or fragment, human, UniProt P14136 1-311, looked up)
chain: MERRRITSAARRSYVSSGEMMVGGLAPGRRLGPGTRLSLARMPPPLPTRVDFSLAGALNAGFKETRASERAEMMELNDRFASYIEKVRFLEQQNKALAAELNQLRAKEPTKLADVYQAELRELRLRLDQLTANSARLEVERDNLAQDLATVRQKLQDETNLRLEAENNLAAYRQEADEATLARLDLERKIESLEEEIRFLRKIHEEEVRELQEQLARQQVHVELDVAKPDLTAALKEIRTQYEAMASSNMHEAEEWYRSKFADLTDAAARNAELLRQAKHEANDYRRQLQSLTCDLESLRGTNESLERQMR
notes: Human GFAPα, the initial 311 residues; truncation caused by a nonsense Alexander disease mutation; Expressed from pET23b; no tag named
percent in the pellet (low-speed sedimentation) [1]: 68%

B2: CΔ207 GFAP (domain or fragment, human, UniProt P14136 1-225, looked up)
chain: MERRRITSAARRSYVSSGEMMVGGLAPGRRLGPGTRLSLARMPPPLPTRVDFSLAGALNAGFKETRASERAEMMELNDRFASYIEKVRFLEQQNKALAAELNQLRAKEPTKLADVYQAELRELRLRLDQLTANSARLEVERDNLAQDLATVRQKLQDETNLRLEAENNLAAYRQEADEATLARLDLERKIESLEEEIRFLRKIHEEEVRELQEQLARQQVHVELD
notes: Human GFAPα, the first 225 amino acids; N-terminal fragment produced by caspase-6 cleavage at 222VELD225; Expressed from pET23b; no tag named
percent in the pellet (low-speed sedimentation) [1]: 91%

B3: CΔ92 GFAP (domain or fragment, human, UniProt P14136 1-340, looked up)
chain: MERRRITSAARRSYVSSGEMMVGGLAPGRRLGPGTRLSLARMPPPLPTRVDFSLAGALNAGFKETRASERAEMMELNDRFASYIEKVRFLEQQNKALAAELNQLRAKEPTKLADVYQAELRELRLRLDQLTANSARLEVERDNLAQDLATVRQKLQDETNLRLEAENNLAAYRQEADEATLARLDLERKIESLEEEIRFLRKIHEEEVRELQEQLARQQVHVELDVAKPDLTAALKEIRTQYEAMASSNMHEAEEWYRSKFADLTDAAARNAELLRQAKHEANDYRRQLQSLTCDLESLRGTNESLERQMREQEERHVREAASYQEALARLEEEGQSLKD
notes: Human GFAPα with 92 residues deleted from the C-terminus (CΔX is the number of residues deleted from the C-terminus); fragment potentially generated by calpain cleavage at 337SLKD340; Expressed from pET23b; no tag named
binding result [2]: binds

binding result [3]: binds
B4: ΔEx4 GFAP (natural protein)
chain: not shown
notes: Expressed from pET23b; no tag named; also called ΔEx4 mutant
binding result [2]: binds

binding result [4]: binds
B5: ΔEx5 GFAP (natural protein)
chain: not shown
notes: Human GFAPα with an in-frame deletion of 42 residues, amino acids 261-302 (skipping of exon 5, an Alexander disease splice site mutation); Expressed from pET23b; no tag named; also called ΔEx5 mutant; ΔEx5 deletion mutant
percent in the pellet (low-speed sedimentation) [1]: 69%
